Reference: IntAct's records for PubMed 12796778

B1: Nuclear distribution protein nudE-like 1 (Mus musculus), Q9ERR1 (parent)
chain: MDGEDIPDFSSLKEETAYWKELSLKYKQSFQEARDELVEFQEGSRELEAELEAQLVQAEQRNRDLQADNQRLKYEVEALKEKLEHQYAQSYKQVSVLEDDLSQTRAIKEQLHKYVRELEQANDDLERAKRATIVSLEDFEQRLNQAIERNAFLESELDEKESLLVSVQRLKDEARDLRQELAVRERQQEVTRKSAPSSPTLDCEKMDSAVQASLSLPATPVGKGTENSFPSPKAIPNGFGTSPLTPSARISALNIVGDLLRKVGALESKLAACRNFAKDQASRKSYVPGSVNCGVMNSNGPECPRSGRATFFHKGAVNGFDPAPPPPGLGSSRPSSAPGMLPLSV

Variants of: B1
Details: with 1433e_mouse Ywhae

| effect of a mutation on the interaction | Variant |
| --- | --- |
| disrupting interaction strength | MDGEDIPDFSSLKEETAYWKELSLKYKQSFQEARDELVEFQEGSRELEAELEAQLVQAEQRNRDLQADNQRLKYEVEALKEKLEHQYAQSYKQVSVLEDDLSQTRAIKEQLHKYVRELEQANDDLERAKRATIVSLEDFEQRLNQAIERNAFLESELDEKESLLVSVQRLKDEARDLRQELAVRERQQEVTRKSAPSAPTLDCEKMDSAVQASLSLPAAPVGKGTENSFPAPKAIPNGFGTSPLTPSARISALNIVGDLLRKVGALESKLAACRNFAKDQASRKSYVPGSVNCGVMNSNGPECPRSGRATFFHKGAVNGFDPAPPPPGLGSSRPSSAPGMLPLSV [S198A;T219A;S231A] |
| decreasing interaction strength | MDGEDIPDFSSLKEETAYWKELSLKYKQSFQEARDELVEFQEGSRELEAELEAQLVQAEQRNRDLQADNQRLKYEVEALKEKLEHQYAQSYKQVSVLEDDLSQTRAIKEQLHKYVRELEQANDDLERAKRATIVSLEDFEQRLNQAIERNAFLESELDEKESLLVSVQRLKDEARDLRQELAVRERQQEVTRKSAPSSPTLDCEKMDSAVQASLSLPAAPVGKGTENSFPSPKAIPNGFGTSPLTPSARISALNIVGDLLRKVGALESKLAACRNFAKDQASRKSYVPGSVNCGVMNSNGPECPRSGRATFFHKGAVNGFDPAPPPPGLGSSRPSSAPGMLPLSV [T219A] |
| decreasing interaction strength | MDGEDIPDFSSLKEETAYWKELSLKYKQSFQEARDELVEFQEGSRELEAELEAQLVQAEQRNRDLQADNQRLKYEVEALKEKLEHQYAQSYKQVSVLEDDLSQTRAIKEQLHKYVRELEQANDDLERAKRATIVSLEDFEQRLNQAIERNAFLESELDEKESLLVSVQRLKDEARDLRQELAVRERQQEVTRKSAPSSPTLDCEKMDSAVQASLSLPATPVGKGTENSFPAPKAIPNGFGTSPLTPSARISALNIVGDLLRKVGALESKLAACRNFAKDQASRKSYVPGSVNCGVMNSNGPECPRSGRATFFHKGAVNGFDPAPPPPGLGSSRPSSAPGMLPLSV [S231A] |
| decreasing interaction strength | MDGEDIPDFSSLKEETAYWKELSLKYKQSFQEARDELVEFQEGSRELEAELEAQLVQAEQRNRDLQADNQRLKYEVEALKEKLEHQYAQSYKQVSVLEDDLSQTRAIKEQLHKYVRELEQANDDLERAKRATIVSLEDFEQRLNQAIERNAFLESELDEKESLLVSVQRLKDEARDLRQELAVRERQQEVTRKSAPSAPTLDCEKMDSAVQASLSLPATPVGKGTENSFPSPKAIPNGFGTSPLTPSARISALNIVGDLLRKVGALESKLAACRNFAKDQASRKSYVPGSVNCGVMNSNGPECPRSGRATFFHKGAVNGFDPAPPPPGLGSSRPSSAPGMLPLSV [S198A] |
